Measured values as given in patent US20240294646A1.

Columns and labels:
FcγRIIb [1] = target: FcγRIIb (UniProt P31994); assay: SPR (Protocol 2); ratio of the fold for FcγRIIb to the fold for FcγRIIaR
FcγRIIb [2] = target: FcγRIIb (UniProt P31994); assay: SPR (Protocol 2), antibody captured on immobilised HER2, receptor as analyte
FcγRIIaR = FcγRIIaR (UniProt P12318); assay: as above
[3] = target: Soluble FcγRIIb extracellular domain with C-terminal 10xHis tag (UniProt P31994); assay: SPR; IIb-Fold / IIaR-Fold (FcγRIIb over FcγRIIaR)
Chain of Soluble FcγRIIb extracellular domain with C-terminal 10xHis tag (P31994 other isoform, or with tags, fused parts or gaps): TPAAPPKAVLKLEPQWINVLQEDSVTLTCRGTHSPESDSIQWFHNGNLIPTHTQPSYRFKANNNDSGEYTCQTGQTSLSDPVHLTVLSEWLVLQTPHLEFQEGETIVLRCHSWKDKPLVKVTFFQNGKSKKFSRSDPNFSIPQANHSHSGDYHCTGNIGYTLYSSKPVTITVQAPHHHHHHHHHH

[4] = target: Soluble FcγRIIb extracellular domain with C-terminal 10xHis tag (UniProt P31994); assay: SPR, antibody captured on HER2, receptor as analyte; affinity fold over wild-type v16463
[5] = target: Soluble FcγRIIaR extracellular domain with C-terminal 10xHis tag (UniProt P12318); assay: as above
Chain of Soluble FcγRIIaR extracellular domain with C-terminal 10xHis tag (P12318 other isoform, or with tags, fused parts or gaps): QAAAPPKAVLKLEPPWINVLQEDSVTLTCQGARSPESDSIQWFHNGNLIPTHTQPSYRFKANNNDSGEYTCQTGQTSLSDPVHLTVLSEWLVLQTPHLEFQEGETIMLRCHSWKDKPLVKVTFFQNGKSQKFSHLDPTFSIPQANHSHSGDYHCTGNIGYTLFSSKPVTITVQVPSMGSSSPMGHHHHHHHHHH

[6] = target: Soluble FcγRIIb extracellular domain with C-terminal 10xHis tag (UniProt P31994); assay: SPR; FcγRIIb affinity fold against control v27294
[7] = target: Soluble FcγRIIb extracellular domain with C-terminal 10xHis tag (UniProt P31994); assay: SPR; IIb/IIaR selectivity against control v27294

Chain of FcγRIIaR (P12318 34-217): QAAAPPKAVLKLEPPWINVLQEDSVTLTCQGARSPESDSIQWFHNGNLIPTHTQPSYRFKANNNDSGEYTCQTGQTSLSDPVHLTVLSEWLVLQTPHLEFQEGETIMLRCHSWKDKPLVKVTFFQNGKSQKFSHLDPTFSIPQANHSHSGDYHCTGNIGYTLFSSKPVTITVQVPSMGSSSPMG
Chain of FcγRIIb (P31994 43-217): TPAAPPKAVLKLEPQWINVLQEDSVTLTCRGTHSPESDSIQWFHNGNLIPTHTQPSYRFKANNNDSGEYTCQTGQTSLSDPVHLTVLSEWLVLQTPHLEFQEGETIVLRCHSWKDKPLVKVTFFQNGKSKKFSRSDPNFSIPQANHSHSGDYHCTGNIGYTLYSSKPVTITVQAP

Substance	IIb/IIaR Selectivity (IIb-Fold/IIaR-Fold) (FcγRIIb [1])	IIb-Fold (fold change in affinity over wild-type) (fold over wild-type) (FcγRIIb [2])	IIaR-Fold (fold change in affinity over wild-type) (fold over wild-type) (FcγRIIaR)	IIb Selectivity [3] [fold]	IIb-Fold [4] [fold]	IIaR-fold [5] [fold]	IIb-Fold wrt Control [6] [fold]	IIb Selectivity Improvement wrt Control [7] [fold]
Variant 19503 (chain A: G236N_G237A / chain B: G236N_G237A), one-armed trastuzumab antibody, Scaffold 2	4.5	0.2	0.04					
Variant 19507 (chain A: G236E / chain B: G236E), one-armed trastuzumab antibody, Scaffold 2	0.4	0.8	1.8					
Variant v26716, A_D270F_strat2, one-armed trastuzumab antibody				13.5	86.7	6.4	0.9	1
Variant v26717, A_D270W_strat2, one-armed trastuzumab antibody				14.5	53.5	3.7	0.6	1.1
Variant v26718, A_D270Y_strat2, one-armed trastuzumab antibody				12.1	54.6	4.5	0.6	0.9
Variant v26719, A_D270T_strat2, one-armed trastuzumab antibody				13.2	64.2	4.9	0.7	1
Variant v26721, A_D270Q_strat2, one-armed trastuzumab antibody				14.6	51.7	3.6	0.6	1.1
Variant v26730, A_P271V_strat2, one-armed trastuzumab antibody					54.4	3.6	0.6	1.1
Variant v26731, A_P271L_strat2, one-armed trastuzumab antibody				14.7	66.6	4.5	0.7	1.1
Variant v26732, A_P271I_strat2, one-armed trastuzumab antibody				12.9	56.9	4.4	0.6	
Variant v26741, A_P271E_strat2, one-armed trastuzumab antibody				11.7	59.3	5.1	0.6	0.9
Variant v26749, A_E272I_strat2, one-armed trastuzumab antibody				13.7	83.8	6.1	0.9	1
Variant v26753, A_E272T_strat2, one-armed trastuzumab antibody				14.7	62.8	4.3	0.7	1.1
Variant v26756, A_E272N_strat2, one-armed trastuzumab antibody				15.8	57.6	3.6	0.6	1.2
Variant v26760, A_E272H_strat2, one-armed trastuzumab antibody				15.3	74.1	4.9	0.8	1.1

Results, then the substance that gave them:

IIb/IIaR Selectivity (IIb-Fold/IIaR-Fold) (FcγRIIb [1])	IIb-Fold (fold change in affinity over wild-type) (fold over wild-type) (FcγRIIb [2])	IIaR-Fold (fold change in affinity over wild-type) (fold over wild-type) (FcγRIIaR)	IIb Selectivity [3] [fold]	IIb-Fold [4] [fold]	IIaR-fold [5] [fold]	IIb-Fold wrt Control [6] [fold]	IIb Selectivity Improvement wrt Control [7] [fold]	Substance
2.4	2.1	0.9						Variant 16490 (chain A: G236D / chain B: G236D), one-armed trastuzumab antibody, Scaffold 2
3.1	0.8	0.3						Variant 16493 (chain A: G236N / chain B: G236N), one-armed trastuzumab antibody, Scaffold 2
3.3	0.2	0.05						Variant 19504 (chain A: G236N_G237F / chain B: G236N_G237F), one-armed trastuzumab antibody, Scaffold 2
			13	49.9	3.8	0.5	1	Variant v26712, A_D270A_strat2, one-armed trastuzumab antibody
			15.2	57.9	3.8	0.6	1.1	Variant v26715, A_D270I_strat2, one-armed trastuzumab antibody
			12.7	49.5	3.9	0.5	0.9	Variant v26720, A_D270S_strat2, one-armed trastuzumab antibody
			16.7	67.4	4	0.7	1.3	Variant v26722, A_D270N_strat2, one-armed trastuzumab antibody
				109	7.3	1.2	1.1	Variant v26723, A_D270E_strat2, one-armed trastuzumab antibody
			14.9	61.7	4.1	0.7	1.1	Variant v26726, A_D270H_strat2, one-armed trastuzumab antibody
			13.5	65.4	4.8	0.7		Variant v26728, A_P271G_strat2, one-armed trastuzumab antibody
			12.3	52.5	4.3	0.6	0.9	Variant v26734, A_P271W_strat2, one-armed trastuzumab antibody
			14.1	56.1	4	0.6	1.1	Variant v26738, A_P271Q_strat2, one-armed trastuzumab antibody
			14.9	50.9	3.4	0.5	1.1	Variant v26739, A_P271N_strat2, one-armed trastuzumab antibody
			14.9	50.5	3.4	0.5	1.1	Variant v26740, A_P271D_strat2, one-armed trastuzumab antibody
			10.7	47.1	4.4	0.5	0.8	Variant v26742, A_P271R_strat2, one-armed trastuzumab antibody
			12.9	55.7	4.3	0.6	1	Variant v26743, A_P271K_strat2, one-armed trastuzumab antibody
			15.1	59.3	3.9	0.6	1.1	Variant v26744, A_P271H_strat2, one-armed trastuzumab antibody
			11.6	51.6	4.5	0.6	0.9	Variant v26745, A_E272G_strat2, one-armed trastuzumab antibody
			15.9	70.8	4.5	0.8	1.2	Variant v26746, A_E272A_strat2, one-armed trastuzumab antibody
			15.2	81.3	5.3	0.9	1.1	Variant v26748, A_E272L_strat2, one-armed trastuzumab antibody
			13.5	61.2	4.5	0.7	1	Variant v26750, A_E272F_strat2, one-armed trastuzumab antibody
			14.7	61	4.1	0.7	1.1	Variant v26754, A_E272S_strat2, one-armed trastuzumab antibody
			13.5	66.6	4.9	0.7	1	Variant v26757, A_E272D_strat2, one-armed trastuzumab antibody
